# In patent US9629910B2, “Use of Th9 cells and IL-9 for the treatment of melanoma” (THE BRIGHAM AND WOMEN'S HOSPITAL, INC., priority 2011, dated 2017):
# Legend:
# [1] = tested on: Lewis lung carcinoma (LLC-1) cells; test: Lewis lung carcinoma (LLC-1) tumor growth in mice treated with rIL-9; type: in vivo
# Description: (§1) Melanoma cell lines (B16F10 cells or B16F10-ova cells), T cell lymphoma (EL-4 or ovalbumin expressing EL-4 (EG-7)) and Lewis lung carcinoma (LLC1) were grown in RPMI1640 supplemented with 10% FBS, and penicillin/streptomycin. B16F10 cells (2-4×10^5 cells/150 μl/mouse), EL-4 (2×10^5 cells/150 μA/mouse), or LLC1 (5×10^5 cells/150 μA/mouse) were injected subcutaneously into the right or left flank of the mice and tumor development was monitored over time. Tumor volume was calculated by following formula: (major circumference×minor circumference^2)/2. Mice were sacrificed when there was external necrosis or/and tumor volume reached no greater than 2 cm in any direction.
# (§2) rIL-9 (5 μg/100 μA PBS/mouse from Cell Sciences, USA) was injected (ip) from day 0 and every third day till the termination of the experiment. In lewis lung carcinoma (LLC-1) model, rIL-9 (50 ng/100 μl PBS/mouse from RnD systems) was used on every alternate day till the termination of experiment. Unlike Cell Science rIL-9 (source: E. coli), rIL-9 from RnD systems is glycosylated and therefore has stronger biological activity compared to Cell Sciences. Thus, 100 times less rIL-9 was used in LLC-1 tumor model experiments compared to melanoma model experiments.
# [2] = tested on: B16F10 melanoma cells; test: B16F10 melanoma growth in mice treated with rIL-9 (i.p.); type: in vivo
# Description: as §1, §2
# [3] = tested on: EL-4 T lymphoma cells; test: EL-4 tumor growth in mice treated with IL-9; type: in vivo; conditions: IL-9 treatment (data not included)
# Description: as §1
# [4] = tested on: B16F10 cells; test: Growth curve assay of tumor cells with rIL-9 (crystal violet); type: cell-based, mouse; conditions: melanoma cells and lung carcinoma cells, rIL-9 at different concentrations (FIG. 10D)
# Description: Effect of rIL-9 on growth of B16F10 cells were studied by growth curve assay. B16F10 cells were seeded with rIL-9. After each incubation period cells were fixed (10% acetic acid in 10% ethanol). Cells were subsequently stained with 0.4% crystal violet in 10% ethanol for 30 min. Subsequently, 200 μl 10% acetic acid was added. After 30 min, 100 μL solution was transferred into 96-well plate and OD was measured at 595-wavelength.
molecule,measurement,setting,value
"rIL-9: recombinant interleukin-9 cytokine from Cell Sciences, injected ip 5 μg/mouse in melanoma model (protein, UniProt P15247 19-144, looked up) Interleukin-9: QRCSTTWGIRDTNYLIENLKDDPPSKCSCSGNVTSCLCLSVPTDDCTTPCYREGLLQLTNATQKSRLLPVFHRVKRIVEVLKNITCPSFSCEKPCNQTMAGNTLSFLKSLLGTFQKTEMQRQKSRP",tumor development,"[1]; mast cell deficient mice (Kit W-sh), LLC-1, vs control (FIG. 5F)",no significant difference in tumor development
same,LLC-1 tumor development,"[1]; normal WT mice, rIL-9 vs control group (FIG. 5C)",significantly suppressed
same,melanoma growth,"[2]; Rag1-/- C57BL/6 mice (lack T and B cells), rIL-9 vs PBS (FIG. 5D)",significantly slowed melanoma growth
same,tumor development,"[2]; mast cell deficient mice (Kit W-sh), B16 melanoma, vs control (FIG. 5E)",no significant difference in tumor development
same,survival of mice,"[2]; melanoma bearing mice, rIL-9 (data not shown)",increased the survival of mice
same,melanoma growth in vaccinated mice,"[2]; mice vaccinated with 1 million irradiated melanoma cells, melanoma cells injected 7 days later, rIL-9 vs PBS",significantly slower melanoma growth
same,melanoma growth,"[2]; normal WT mice, B16F10 s.c., rIL-9 i.p. vs PBS (FIG. 5B)",impaired melanoma growth
same,EL-4 tumor growth,[3],neither inhibition nor acceleration
same,tumor cell growth in vitro,[4],does not affect the growth of these cells in vitro
